Assay results: PMC8277531 (Cell, 2021)

Target: T1, chicken Scap-3xFLAG (pEZT-cScap-3xFLAG WT) expressed in HEK 293T cells (Gallus gallus)
T1 chain: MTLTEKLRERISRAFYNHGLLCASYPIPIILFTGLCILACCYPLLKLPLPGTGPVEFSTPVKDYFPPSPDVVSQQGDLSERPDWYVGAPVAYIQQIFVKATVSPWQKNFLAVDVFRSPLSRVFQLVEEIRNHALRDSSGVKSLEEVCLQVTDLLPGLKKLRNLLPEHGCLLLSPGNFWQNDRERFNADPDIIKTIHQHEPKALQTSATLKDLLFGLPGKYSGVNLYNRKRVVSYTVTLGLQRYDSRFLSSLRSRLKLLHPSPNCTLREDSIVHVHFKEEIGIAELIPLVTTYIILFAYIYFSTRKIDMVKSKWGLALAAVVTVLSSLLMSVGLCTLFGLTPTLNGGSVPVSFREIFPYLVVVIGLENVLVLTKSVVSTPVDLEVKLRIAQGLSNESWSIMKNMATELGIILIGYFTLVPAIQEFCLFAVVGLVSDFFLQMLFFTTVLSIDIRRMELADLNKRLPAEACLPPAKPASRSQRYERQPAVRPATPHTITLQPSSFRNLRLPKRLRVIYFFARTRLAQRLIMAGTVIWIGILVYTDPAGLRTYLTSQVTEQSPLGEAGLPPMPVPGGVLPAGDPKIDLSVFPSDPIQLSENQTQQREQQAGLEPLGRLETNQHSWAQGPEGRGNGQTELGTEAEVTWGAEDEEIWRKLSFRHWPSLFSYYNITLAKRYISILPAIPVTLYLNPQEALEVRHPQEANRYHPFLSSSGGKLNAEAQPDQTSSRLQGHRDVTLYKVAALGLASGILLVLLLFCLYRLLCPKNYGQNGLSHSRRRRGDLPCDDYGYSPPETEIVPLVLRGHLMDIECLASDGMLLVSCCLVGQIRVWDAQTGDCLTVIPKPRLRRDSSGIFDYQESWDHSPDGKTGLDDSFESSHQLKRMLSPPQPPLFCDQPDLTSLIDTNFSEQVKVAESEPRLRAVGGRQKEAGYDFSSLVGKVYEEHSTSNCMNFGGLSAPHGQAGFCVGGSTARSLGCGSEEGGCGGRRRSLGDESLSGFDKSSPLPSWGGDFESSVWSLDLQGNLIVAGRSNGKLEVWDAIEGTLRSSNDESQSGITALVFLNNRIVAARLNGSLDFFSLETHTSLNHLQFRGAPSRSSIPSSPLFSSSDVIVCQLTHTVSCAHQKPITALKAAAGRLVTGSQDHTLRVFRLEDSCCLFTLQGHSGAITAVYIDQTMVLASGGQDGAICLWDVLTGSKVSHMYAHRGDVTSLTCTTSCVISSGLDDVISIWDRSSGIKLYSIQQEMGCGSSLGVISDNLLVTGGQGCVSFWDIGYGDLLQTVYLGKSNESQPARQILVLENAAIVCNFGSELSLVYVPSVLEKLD
Test: pull-down

binding result: binds
B1: Fab fragment derived from mouse monoclonal IgG 4G10 (Fab, V domains shown)
VH: EVQLQQSGAELVRPGASVKLSCTASGFKIKDDYIHWVKQRPEQGLEWIGRIDPANGHTRYAPKFQDKATITADTSSNTAYLQLSSLTSEDTAVYYCTRYNDYDAFYFDYWGQGTTLTVSS
VL: DIQMTQTTSSLSASLGDRVTISCRASQDIRNYLNWYQQKPDGTVKLLIYYTSRLHSGVPSRFSGSGSGTDYSLTISNLEQEDIATYFCQQTNTLPWTFGGGTKVEIK
